Source: the array DNA melting data of Ke et al.

Assay: melting temperature; melt of duplexes
Settings: sodium 0.0675 M; strand 1 µM

| Substance | Tm [°C] |
| --- | --- |
| CGACGTGCTAGATGTGCTG+CAGCACATCACGCACGTCG ((((((((..(((((((((+)))))))))..)))))))) | 54.3 |
| CGACGTGCGTAATGTGCTG+CAGCACATCAGGCACGTCG ((((((((.(.((((((((+)))))))).).)))))))) | 51.5 |
| CGACGTGCTTTATGTGCTG+CAGCACATGGAGCACGTCG (((((((((..((((((((+))))))))..))))))))) | 54.2 |
| CGACGTGCCAGATGTGCTG+CAGCACATGCCGCACGTCG ((((((((...((((((((+))))))))...)))))))) | 49.5 |
| CGACGTGCTAGATGTGCTG+CAGCACATAGTGCACGTCG ((((((((...((((((((+))))))))...)))))))) | 46.1 |
| CGACGTGCGGCATGTGCTG+CAGCACATGCGGCACGTCG ((((((((.((((((((((+)))))))))).)))))))) | 61.7 |
| CGACGTGCCTTATGTGCTG+CAGCACATCTCGCACGTCG ((((((((...((((((((+))))))))...)))))))) | 46.6 |
| CGACGTGCCATATGTGCTG+CAGCACATGCTGCACGTCG ((((((((...((((((((+))))))))...)))))))) | 46.7 |
| CGACGTGCCTAATGTGCTG+CAGCACATGGGGCACGTCG (((((((((..((((((((+))))))))..))))))))) | 56 |
| CGACGTGCCCAATGTGCTG+CAGCACATCAAGCACGTCG ((((((((...((((((((+))))))))...)))))))) | 48.9 |
| CGACGTGCGGGATGTGCTG+CAGCACATGCTGCACGTCG ((((((((.(.((((((((+)))))))).).)))))))) | 56.9 |
| CGACGTGCGCGATGTGCTG+CAGCACATACTGCACGTCG ((((((((...((((((((+))))))))...)))))))) | 50.3 |
| CGACGTGCTTGATGTGCTG+CAGCACATGCCGCACGTCG ((((((((...((((((((+))))))))...)))))))) | 47.8 |
| CGACGTGCGCGATGTGCTG+CAGCACATTCAGCACGTCG ((((((((...((((((((+))))))))...)))))))) | 51.7 |
| CGACGTGCCCGATGTGCTG+CAGCACATGGCGCACGTCG ((((((((.(.((((((((+)))))))).).)))))))) | 53.3 |
| CGACGTGCAAGATGTGCTG+CAGCACATCGTGCACGTCG (((((((((.(((((((((+))))))))).))))))))) | 57.4 |
| CGACGTGCGTCATGTGCTG+CAGCACATACAGCACGTCG ((((((((...((((((((+))))))))...)))))))) | 53 |
| CGACGTGCACTATGTGCTG+CAGCACATTTAGCACGTCG ((((((((...((((((((+))))))))...)))))))) | 42.7 |
| CGACGTGCTTTATGTGCTG+CAGCACATCACGCACGTCG ((((((((.(.((((((((+)))))))).).)))))))) | 47.9 |
| CGACGTGCTCCATGTGCTG+CAGCACATGCAGCACGTCG (((((((((.(((((((((+))))))))).))))))))) | 55.3 |
| CGACGTGCACTATGTGCTG+CAGCACATCTGGCACGTCG ((((((((...((((((((+))))))))...)))))))) | 44.2 |
| CGACGTGCCCCATGTGCTG+CAGCACATCATGCACGTCG ((((((((...((((((((+))))))))...)))))))) | 46.5 |
| CGACGTGCCGTATGTGCTG+CAGCACATAAAGCACGTCG ((((((((..(((((((((+)))))))))..)))))))) | 51.5 |
| CGACGTGCGTGATGTGCTG+CAGCACATCATGCACGTCG ((((((((.((((((((((+)))))))))).)))))))) | 60.2 |

| Substance | Tm [°C] |
| --- | --- |
| CGACGTGCAAAATGTGCTG+CAGCACATTTTGCACGTCG (((((((((((((((((((+))))))))))))))))))) | 62.4 |
| CGACGTGCGCAATGTGCTG+CAGCACATTTAGCACGTCG ((((((((..(((((((((+)))))))))..)))))))) | 53 |
| CGACGTGCTGTATGTGCTG+CAGCACATTTTGCACGTCG ((((((((...((((((((+))))))))...)))))))) | 49.2 |
| CGACGTGCCAGATGTGCTG+CAGCACATCTAGCACGTCG ((((((((.((((((((((+)))))))))).)))))))) | 56.8 |
| CGACGTGCCATATGTGCTG+CAGCACATACCGCACGTCG ((((((((..(((((((((+)))))))))..)))))))) | 48.3 |
| CGACGTGCTCGATGTGCTG+CAGCACATTCGGCACGTCG ((((((((...((((((((+))))))))...)))))))) | 52.3 |
| CGACGTGCGGAATGTGCTG+CAGCACATGCAGCACGTCG ((((((((.(.((((((((+)))))))).).)))))))) | 59.9 |
| CGACGTGCGCCATGTGCTG+CAGCACATTCAGCACGTCG ((((((((...((((((((+))))))))...)))))))) | 49.8 |
| CGACGTGCGACATGTGCTG+CAGCACATGGCGCACGTCG (((((((((.(((((((((+))))))))).))))))))) | 65.2 |
| CGACGTGCCTCATGTGCTG+CAGCACATATTGCACGTCG ((((((((...((((((((+))))))))...)))))))) | 46.7 |
| CGACGTGCGGGATGTGCTG+CAGCACATTACGCACGTCG (((((((((..((((((((+))))))))..))))))))) | 58 |
| CGACGTGCACCATGTGCTG+CAGCACATTGGGCACGTCG ((((((((.(.((((((((+)))))))).).)))))))) | 52.5 |
| CGACGTGCCCTATGTGCTG+CAGCACATAAAGCACGTCG ((((((((..(((((((((+)))))))))..)))))))) | 50 |
| CGACGTGCCGTATGTGCTG+CAGCACATAATGCACGTCG ((((((((..(((((((((+)))))))))..)))))))) | 50.3 |
| CGACGTGCTACATGTGCTG+CAGCACATAGAGCACGTCG (((((((((..((((((((+))))))))..))))))))) | 52.5 |
| CGACGTGCGCCATGTGCTG+CAGCACATCCTGCACGTCG ((((((((...((((((((+))))))))...)))))))) | 47.3 |
| CGACGTGCCTAATGTGCTG+CAGCACATTCTGCACGTCG ((((((((..(((((((((+)))))))))..)))))))) | 51 |
| CGACGTGCGCGATGTGCTG+CAGCACATGCAGCACGTCG ((((((((...((((((((+))))))))...)))))))) | 55.8 |
| CGACGTGCCATATGTGCTG+CAGCACATGTGGCACGTCG ((((((((((.((((((((+)))))))).)))))))))) | 60.3 |
| CGACGTGCGTGATGTGCTG+CAGCACATTGGGCACGTCG ((((((((...((((((((+))))))))...)))))))) | 52.3 |
| CGACGTGCTCTATGTGCTG+CAGCACATCGCGCACGTCG ((((((((.(.((((((((+)))))))).).)))))))) | 48.3 |
| CGACGTGCTCTATGTGCTG+CAGCACATTTTGCACGTCG ((((((((...((((((((+))))))))...)))))))) | 49 |
| CGACGTGCAGTATGTGCTG+CAGCACATACGGCACGTCG ((((((((.((((((((((+)))))))))).)))))))) | 58.3 |
| CGACGTGCACCATGTGCTG+CAGCACATCTTGCACGTCG (((((((((..((((((((+))))))))..))))))))) | 45.7 |

| Substance | Tm [°C] |
| --- | --- |
| CGACGTGCCACATGTGCTG+CAGCACATGGTGCACGTCG ((((((((..(((((((((+)))))))))..)))))))) | 53.2 |
| CGACGTGCTTTATGTGCTG+CAGCACATATCGCACGTCG ((((((((..(((((((((+)))))))))..)))))))) | 49.1 |
| CGACGTGCAAGATGTGCTG+CAGCACATACGGCACGTCG ((((((((...((((((((+))))))))...)))))))) | 49.2 |
| CGACGTGCTACATGTGCTG+CAGCACATTACGCACGTCG ((((((((...((((((((+))))))))...)))))))) | 48.7 |
| CGACGTGCGATATGTGCTG+CAGCACATCGCGCACGTCG (((((((((..((((((((+))))))))..))))))))) | 53.6 |
| CGACGTGCTAAATGTGCTG+CAGCACATGTTGCACGTCG ((((((((.(.((((((((+)))))))).).)))))))) | 52.6 |
| CGACGTGCAGAATGTGCTG+CAGCACATGATGCACGTCG (((((((((..((((((((+))))))))..))))))))) | 57.9 |
| CGACGTGCCGCATGTGCTG+CAGCACATAGAGCACGTCG ((((((((...((((((((+))))))))...)))))))) | 50.7 |
| CGACGTGCTTCATGTGCTG+CAGCACATTCAGCACGTCG (((((((((..((((((((+))))))))..))))))))) | 50.7 |
| CGACGTGCGTGATGTGCTG+CAGCACATAGAGCACGTCG ((((((((...((((((((+))))))))...)))))))) | 53.1 |
| CGACGTGCCCGATGTGCTG+CAGCACATGATGCACGTCG ((((((((...((((((((+))))))))...)))))))) | 48.9 |
| CGACGTGCCTGATGTGCTG+CAGCACATACAGCACGTCG ((((((((...((((((((+))))))))...)))))))) | 50.8 |
| CGACGTGCGGGATGTGCTG+CAGCACATACCGCACGTCG ((((((((((.((((((((+)))))))).)))))))))) | 63.1 |
| CGACGTGCGTGATGTGCTG+CAGCACATCACGCACGTCG (((((((((((((((((((+))))))))))))))))))) | 66.2 |
| CGACGTGCTACATGTGCTG+CAGCACATTGTGCACGTCG ((((((((...((((((((+))))))))...)))))))) | 48.7 |
| CGACGTGCGCCATGTGCTG+CAGCACATCGGGCACGTCG ((((((((.(.((((((((+)))))))).).)))))))) | 51.2 |
| CGACGTGCGTAATGTGCTG+CAGCACATCTAGCACGTCG ((((((((...((((((((+))))))))...)))))))) | 54.7 |
| CGACGTGCGTAATGTGCTG+CAGCACATGGCGCACGTCG (((((((((..((((((((+))))))))..))))))))) | 57.2 |
| CGACGTGCTCGATGTGCTG+CAGCACATTAAGCACGTCG (((((((((..((((((((+))))))))..))))))))) | 51.9 |
| CGACGTGCAGGATGTGCTG+CAGCACATGGAGCACGTCG ((((((((...((((((((+))))))))...)))))))) | 50.3 |
| CGACGTGCATGATGTGCTG+CAGCACATGATGCACGTCG ((((((((((.((((((((+)))))))).)))))))))) | 56.8 |
| CGACGTGCAGTATGTGCTG+CAGCACATAATGCACGTCG (((((((((.(((((((((+))))))))).))))))))) | 57 |
| CGACGTGCATAATGTGCTG+CAGCACATAAGGCACGTCG ((((((((.(.((((((((+)))))))).).)))))))) | 51.3 |
| CGACGTGCGGAATGTGCTG+CAGCACATTGTGCACGTCG ((((((((..(((((((((+)))))))))..)))))))) | 53.9 |
